Data published in patent publication US20110117602A1.

Tests used:
[1] = biological target: HLA-DR on Daudi cells (human); assay: FACS analysis, PE-labeled L243 on Daudi cells
[2] = biological target: HLA-DR on M8166 cells (human); assay: FACS analysis, PE-labeled L243 on M8166 cells

L243 mouse monoclonal antibody to HLA-DR α chain, sequence (VH): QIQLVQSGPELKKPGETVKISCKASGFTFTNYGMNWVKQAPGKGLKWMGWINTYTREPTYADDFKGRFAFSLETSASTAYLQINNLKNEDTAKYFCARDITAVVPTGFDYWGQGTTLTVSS
L243 mouse monoclonal antibody to HLA-DR α chain, sequence (VL): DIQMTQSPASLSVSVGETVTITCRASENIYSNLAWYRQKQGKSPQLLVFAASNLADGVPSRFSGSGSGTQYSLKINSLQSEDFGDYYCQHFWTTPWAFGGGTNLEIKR

## L243 mouse monoclonal antibody to HLA-DR α chain
[1]
  fluorescence as a fraction of that of S1T cells: 0.1
[2]
  fluorescence as a fraction of that of S1T cells: 0.01
